Experiments:
Test in all cases: pull-down
[1] = target: Myristoylated GINIP (myr-GINIP), C-terminally His-tagged (human, UniProt Q9UPV7 1-400, myristoylated (co-expression with N-myristoyl transferase))
GINIP ∆N16 = GINIP ∆N16 (human, UniProt Q9UPV7 17-400)
[2] = target: GINIP WT, C-terminally His-tagged (pET21a(+)-GINIP-His) (human, UniProt Q9UPV7 1-400)

Measured: binding result

Chain of Myristoylated GINIP (myr-GINIP), C-terminally His-tagged (Q9UPV7 whole entry): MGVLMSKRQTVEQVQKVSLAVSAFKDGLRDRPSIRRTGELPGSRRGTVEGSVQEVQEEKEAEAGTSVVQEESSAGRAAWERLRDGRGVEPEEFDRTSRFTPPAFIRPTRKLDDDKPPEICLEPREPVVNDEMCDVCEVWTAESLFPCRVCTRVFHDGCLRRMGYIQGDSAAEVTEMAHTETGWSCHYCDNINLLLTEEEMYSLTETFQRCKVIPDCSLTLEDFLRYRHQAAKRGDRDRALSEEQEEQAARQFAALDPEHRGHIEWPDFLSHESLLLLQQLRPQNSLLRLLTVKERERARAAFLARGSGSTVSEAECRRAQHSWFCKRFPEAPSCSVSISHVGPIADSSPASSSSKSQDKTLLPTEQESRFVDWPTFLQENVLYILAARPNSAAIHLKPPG
Chain of GINIP WT, C-terminally His-tagged (pET21a(+)-GINIP-His) (Q9UPV7 whole entry): as above
Chain of GINIP ∆N16 (Q9UPV7 17-400): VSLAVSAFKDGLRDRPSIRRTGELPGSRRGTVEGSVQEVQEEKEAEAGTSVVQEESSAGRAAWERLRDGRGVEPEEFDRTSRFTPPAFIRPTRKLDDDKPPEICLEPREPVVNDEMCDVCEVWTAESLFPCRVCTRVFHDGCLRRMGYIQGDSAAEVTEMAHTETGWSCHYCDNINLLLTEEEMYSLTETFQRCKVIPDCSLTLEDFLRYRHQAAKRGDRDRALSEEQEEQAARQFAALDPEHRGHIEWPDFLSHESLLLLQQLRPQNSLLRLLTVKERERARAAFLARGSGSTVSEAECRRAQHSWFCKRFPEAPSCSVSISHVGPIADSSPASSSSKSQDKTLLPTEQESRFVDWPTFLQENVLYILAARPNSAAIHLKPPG

B1: GST-Gαi3 (natural protein)
chain: MGCTLSAEDKAAVERSKMIDRNLREDGEKAAKEVKLLLLGAGESGKSTIVKQMKIIHEDGYSEDECKQYKVVVYSNTIQSIIAIIRAMGRLKIDFGEAARADDARQLFVLAGSAEEGVMTSELAGVIKRLWRDGGVQACFSRSREYQLNDSASYYLNDLDRISQTNYIPTQQDVLRTRVKTTGIVETHFTFKELYFKMFDVGGQRSERKKWIHCFEGVTAIIFCVALSDYDLVLAEDEEMNRMHESMKLFDSICNNKWFTDTSIILFLNKKDLFEEKIKRSPLTICYPEYTGSNTYEEAAAYIQCQFEDLNRRKDTKEVYTHFTCATDTKNVQFVFDAVTDVIIKNNLKECGLY
binds: all assays above

— article PMC10153262 (bioRxiv, 2023)
